According to patent US20250270339A1 (Alector, published 2025):

What was measured:
[1] = target: T1, Full length Mouse TfR on CHO cells (mouse, UniProt Q62351 1-763); test: FACS, CHO+muTfR
T1 construct: also called CHO + muTfR
Procedure: (§1) A total of 1536 anti-TfR hybridoma supernatants were initially screened for their ability to differentially bind CHO cells overexpressing human or mouse TfR cells compared to CHO parental cells by FACS. Overexpressing cells were harvested, washed and labeled with Pacific Blue, FITC and Pacific Orange dyes (ThermoFisher) to create uniquely barcoded cell populations. Barcoded cells (5×10⁴ of each cell population) were aliquoted into 96-well U-bottom plates and incubated with 50 μl of hybridoma cell culture supernatant or […] of commercially available purified mouse anti-human TfR monoclonal antibody (Sigma Aldrich, Cat #SAB4700515) and rat anti-mouse TfR antibody (Invitrogen, Waltham, MA, Cat #R17217) on ice for 30 minutes. After this primary incubation, the supernatants were removed via centrifugation, the cells were washed twice with 175 μl of ice-cold FACS buffer (PBS+1% FBS+2 mM EDTA), and the cells were then further incubated on ice for 20 minutes with anti-mouse IgG Fc-allophycocyanin (APC) or anti-rat IgG Fc-APC (Jackson Labs, Cat #115-136-071 and Cat #112-136-071, respectively) (diluted 1:1000). Following this secondary antibody incubation, the cells were again washed twice with ice-cold FACS buffer and resuspended in a final volume of 50 μl of FACS buffer. Binding intensity on cells was analyzed using the FACS Canto system (BD Biosciences), and the ratio of APC Mean Fluorescence Intensity (MFI) on each barcoded cell population was determined for each anti-TfR hybridoma supernatant tested.

[2] = target: T2, huTfR Apical Domain-Avi-His (human, biotin on the Avi tag (BirA) where captured on streptavidin); test: ELISA OD450, supernatant
T2 construct: also called huTfR apical Avi-His; hTfR Apical
T2 chain: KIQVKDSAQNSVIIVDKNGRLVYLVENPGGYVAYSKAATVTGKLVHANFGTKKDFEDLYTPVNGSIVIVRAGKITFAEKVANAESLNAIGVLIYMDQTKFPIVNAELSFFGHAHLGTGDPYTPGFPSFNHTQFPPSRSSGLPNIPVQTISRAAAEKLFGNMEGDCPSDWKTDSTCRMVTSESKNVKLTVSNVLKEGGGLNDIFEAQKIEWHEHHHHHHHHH
Procedure: Hybridoma culture supernatants from 319 hybridomas obtained as described above were screened for their ability to bind Avi-His-tagged huTfR ECD, huTfR apical domain, and muTfR ECD (as described in Example 1) as compared to binding to an irrelevant Avi-His-tagged control protein. Briefly, 96-well polystyrene plates were coated with 5 μg/ml of streptavidin (Thermo Fisher, Cat #PI21125) in coating buffer (0.05M carbonate buffer, pH 9.6, Sigma, Cat #C3041) overnight at 4° C. Coated plates were then blocked with ELISA diluent (PBS+0.5% BSA+0.05% Tween20) for one hour. Blocking buffer was removed and Avi-His-tagged human TfR, human TfR apical domain, mouse TfR and an irrelevant Avi-His-tagged protein were added at 1 μg/ml in ELISA diluent and captured for 1 hour at room temperature. After washing three times with 300 μl of PBST (PBS+0.05% Tween20, Thermo 28352), the hybridoma cell culture supernatants were added (50 μl/well) to each well. After 30 minutes of incubation at room temperature, the plates were washed three times with 300 μl of PBST. Anti-mouse IgG Fc-HRP or anti-rat IgG Fc-HRP (Jackson Immunoresearch, Cat #115-035-071 and 112-036-071, respectively) secondary antibodies were diluted 1:5000 in ELISA diluent, added to each well at 50 μl/well, and incubated for 30 minutes at room temperature with shaking. After a final set of washes (3×300 μl in PBST), 50 μl/well of BioFx TMB substrate (Surmodics, Cat #TMBW-1000-01) was added to the wells. The reaction was then quenched after 5-10 mins with 50 μl/well of 2N sulfuric acid. The plates were read for absorbance at 450 nm on a SpectraMax M5 (Molecular Devices, Sunnyvale, CA) using SoftMax Pro software.

[3] = target: T1, Full length Mouse TfR on CHO cells; test: FACS MFI, supernatant
Procedure: as §1

[4] = target: T3, Full length human TfR on CHO cells (human, UniProt P02786 1-760); test: FACS MFI, supernatant
T3 construct: also called CHO + huTfR; CHO + hTfR
T3 sequence (P02786 whole entry): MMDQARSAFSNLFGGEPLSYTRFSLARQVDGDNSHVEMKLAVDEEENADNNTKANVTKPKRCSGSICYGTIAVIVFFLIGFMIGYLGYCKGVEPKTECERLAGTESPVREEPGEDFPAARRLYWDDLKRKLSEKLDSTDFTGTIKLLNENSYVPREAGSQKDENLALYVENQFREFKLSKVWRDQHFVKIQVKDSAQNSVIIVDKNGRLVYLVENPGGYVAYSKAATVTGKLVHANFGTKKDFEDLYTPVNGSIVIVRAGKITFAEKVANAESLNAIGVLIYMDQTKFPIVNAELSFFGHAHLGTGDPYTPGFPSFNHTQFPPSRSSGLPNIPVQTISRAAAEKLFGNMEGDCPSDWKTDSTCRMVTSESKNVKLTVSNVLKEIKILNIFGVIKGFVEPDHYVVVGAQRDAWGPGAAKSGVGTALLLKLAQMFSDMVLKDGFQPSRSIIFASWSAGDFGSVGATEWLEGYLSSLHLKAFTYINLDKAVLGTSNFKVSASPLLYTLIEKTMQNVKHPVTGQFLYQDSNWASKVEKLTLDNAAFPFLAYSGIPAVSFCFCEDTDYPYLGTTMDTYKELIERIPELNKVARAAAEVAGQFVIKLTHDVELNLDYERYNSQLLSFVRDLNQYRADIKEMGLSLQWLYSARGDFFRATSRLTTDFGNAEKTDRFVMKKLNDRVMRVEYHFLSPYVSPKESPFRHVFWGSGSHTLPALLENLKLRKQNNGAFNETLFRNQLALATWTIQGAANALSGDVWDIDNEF
Procedure: as §1

T1 sequence (Q62351 whole entry): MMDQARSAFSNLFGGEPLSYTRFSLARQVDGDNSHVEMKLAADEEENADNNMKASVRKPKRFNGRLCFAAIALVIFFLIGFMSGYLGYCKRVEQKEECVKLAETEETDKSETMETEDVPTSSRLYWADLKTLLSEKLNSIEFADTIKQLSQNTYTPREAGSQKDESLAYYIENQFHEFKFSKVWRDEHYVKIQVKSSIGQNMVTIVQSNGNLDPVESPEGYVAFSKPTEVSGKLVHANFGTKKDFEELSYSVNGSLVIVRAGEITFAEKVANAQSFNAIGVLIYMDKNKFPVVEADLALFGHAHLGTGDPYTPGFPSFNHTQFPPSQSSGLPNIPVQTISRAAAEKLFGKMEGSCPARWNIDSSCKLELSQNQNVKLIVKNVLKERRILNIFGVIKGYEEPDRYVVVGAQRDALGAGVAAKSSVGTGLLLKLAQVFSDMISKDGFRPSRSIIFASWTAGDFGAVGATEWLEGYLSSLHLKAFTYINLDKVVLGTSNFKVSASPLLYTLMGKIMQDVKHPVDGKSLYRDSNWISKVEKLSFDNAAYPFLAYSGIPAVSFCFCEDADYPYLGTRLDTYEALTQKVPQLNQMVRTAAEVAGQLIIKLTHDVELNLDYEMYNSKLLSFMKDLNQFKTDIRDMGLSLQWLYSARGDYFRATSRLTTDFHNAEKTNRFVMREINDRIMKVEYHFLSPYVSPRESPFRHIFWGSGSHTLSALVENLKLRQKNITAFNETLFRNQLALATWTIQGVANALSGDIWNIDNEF

B1: TfR32 (mouse hybridoma antibody) (antibody, V domains shown)
VH: QVQLQQSGADLVRPGTSVKVSCKASGNAFSNYLIEWVKQRPGQGLEWIGVINPGSGETNYNEKFKGKATLTADKSSSTAYMQLSSLTSDDSAVYFCAIRYDGPLLDHWGQGTSVTVSS
VL: SIVMTQTPKFLLVSAGDRVTITCKASQSVSNDVAWFQQKPGQSPKLLIYYASNRYTGVPDRFTGSGYGTDFTFTIRNVQAEDLAVYFCQQDYISPTFGAGTKLELK
notes: mouse IgG in hybridoma supernatant
binding result [1]: no binding | ratio over irrelevant protein [2]: 25 fold | fold over parental (CHO WT) [3]: 1 fold | fold over parental (CHO WT) [4]: 137 fold
